# ± gives the standard deviation of the averaged measurements.
# Test system: Saccharomyces cerevisiae
# Test: protein stability index of tFT-peptide fusion (C-terminal peptide) (PSI (0-1 scale)); higher = more stable (slower turnover)
# Conditions: genetic background: wild type; temperature: 30 C
# 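Note: PSI is a weighted mean of sequencing reads over stability bins, variants kept only with over 10 reads, mCherry proximal and sfGFP distal, peptide attached via GGGS linker.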
row,Sequence,protein stability index
1,RGGDGGGLRTRD,0.688 ± 0.037
2,RGGEGTQRRKLR,0.717 ± 0.077
3,RGGGAARGGGVG,0.658 ± 0.009
4,RGGGGGGQVAVG,0.711 ± 0.049
5,RGGGGGRKVSVG,0.658 ± 0.062
6,RGGGRGGSRTGA,0.712 ± 0.033
7,RGGNVDSRKMNR,0.722 ± 0.018
8,RGGPQARRLRPY,0.706 ± 0.063
9,RGGVGRLEGCRG,0.684 ± 0.066
10,RGGWRGVWGHVV,0.599 ± 0.033
11,RGKTIQGNADPK,0.672 ± 0.032
12,RGLYQCFLLDIV,0.472 ± 0.047
13,RGMVPREKHQNS,0.683 ± 0.013
14,RGPARFYVRVSV,0.498 ± 0.0077
15,RGPFSGKCEPSM,0.663 ± 0.049
16,RGPGAWFVSWWA,0.7886 ± 0.0029
17,RGPGMVRAFAEA,0.679 ± 0.011
18,RGQTSLTGERNK,0.701 ± 0.055
19,RGRCGRLSRAGA,0.727 ± 0.041
20,RGRGKRNDPEKR,0.681 ± 0.036
21,RGRGSLPGFKSL,0.654 ± 0.058
22,RGRTLVVPAPDT,0.673 ± 0.017
23,RGSFGAWTVGGQ,0.59 ± 0.026

row,Sequence,protein stability index
1,RGSIKSYNTRKT,0.728 ± 0.009
2,RGTYRYNFSQKK,0.652 ± 0.12
3,RGVDVWQGRTVP,0.6879 ± 0.0031
4,RGVGGRALGVGR,0.678 ± 0.038
5,RGVGGRGIGFPR,0.6826 ± 0.0058
6,RGVPWVVFSVGA,0.542 ± 0.015
7,RGWGVLCGGGWG,0.556 ± 0.053
8,RHDSYKSLHSNL,0.743 ± 0.05
9,RHFFRYYLDHPS,0.617 ± 0.035
10,RHGDGGRGRVDG,0.736 ± 0.1
11,RHIKIADYKTLT,0.686 ± 0.04
12,RHILPNKCRLHH,0.714 ± 0.2
13,RHKVVLQPRPQV,0.649 ± 0.039
14,RHPPVPCIAQIR,0.658 ± 0.024
15,RHPTITAPTPTP,0.748 ± 0.063
16,RHRLTPLTQYPS,0.677 ± 0.062
17,RIGDVIRIAEIK,0.729 ± 0.069
18,RIIRPRSTKDHP,0.745 ± 0.14
19,RIKKKKKIKRNN,0.7 ± 0.02
20,RILLSPLSQSQP,0.695 ± 0.025
21,RIPLYAFLPPID,0.745 ± 0.066
22,RIPTALLAPYAQ,0.649 ± 0.03
23,RKAPLPDRGIPW,0.708 ± 0.017

row,Sequence,protein stability index
1,RKCDKVGCDEKA,0.66 ± 0.02
2,RKEEKKEGKGTR,0.663 ± 0.062
3,RKEESKKEKNKI,0.65 ± 0.11
4,RKEKRKRRGEAN,0.662 ± 0.061
5,RKGDRAQRWRDL,0.655 ± 0.12
6,RKIRKKRERKGE,0.714 ± 0.2
7,RKKGKLESKKQK,0.742 ± 0.12
8,RKKINKRLCLGN,0.692 ± 0.033
9,RKKQYEKKSEKP,0.689 ± 0.11
10,RKLYMCMRTKGD,0.673 ± 0.046
11,RKNDSKKNCVKE,0.705 ± 0.089
12,RKPTSFFSRIVN,0.611 ± 0.026
13,RKRPTQAMIFNI,0.5568 ± 0.0013
14,RKSERIKNKNGR,0.715 ± 0.037
15,RKSKRLDQSCTR,0.703 ± 0.035
16,RKTGTGETRTRR,0.691 ± 0.015
17,RKVKGKKRYTEG,0.662 ± 0.058
18,RKYKNKRSKKEK,0.755 ± 0.1
19,RLCLFPVAPLLS,0.599 ± 0.03
20,RLCLLVVPLLPP,0.665 ± 0.055
21,RLCPWNLSDADL,0.71 ± 0.0091
22,RLDRGLHIKAIT,0.704 ± 0.014
23,RLDVGAGGCLGG,0.716 ± 0.021

row,Sequence,protein stability index
1,RLFIALFPPFYL,0.64 ± 0.05
2,RLGAEYNWVNLS,0.6362 ± 0.0026
3,RLGALNHPLAAP,0.7183 ± 0.0057
4,RLGARGGSRGRP,0.736 ± 0.012
5,RLGFCGLGHRCE,0.677 ± 0.033
6,RLGLRWSPHSSP,0.707 ± 0.01
7,RLGLSIASAPCL,0.693 ± 0.062
8,RLIEDREWLGSR,0.721 ± 0.014
9,RLIIRYESYTSD,0.709 ± 0.013
10,RLLFLPPPPPPP,0.654 ± 0.082
11,RLLLPSTLLPPR,0.761 ± 0.13
12,RLLLSRCSFLPT,0.663 ± 0.03
13,RLLPLPRRTPPL,0.852 ± 0.11
14,RLLPPSLAQRNN,0.5909 ± 0.0011
15,RLLRDFQSVGGD,0.6498 ± 0.0014
16,RLPAPPPHPPPP,0.7037 ± 0.0013
17,RLPPGATPYPPR,0.711 ± 0.013
18,RLPPRPPPRPPT,0.6514 ± 0.006
19,RLPRSPPLPSCR,0.726 ± 0.016
20,RLPSAPPRQPTH,0.667 ± 0.061
21,RLRPPPRTLPTP,0.722 ± 0.011
22,RLRQTLPTWVTT,0.665 ± 0.015
23,RLRSSTAAAAIV,0.713 ± 0.082

row,Sequence,protein stability index
1,RLRSWLGIALFL,0.642 ± 0.0067
2,RLSSLRAFSLRS,0.721 ± 0.026
3,RLSSLSPFLVLS,0.589 ± 0.0084
4,RLTALVYFISPL,0.597 ± 0.017
5,RLVFDTGPPFIN,0.657 ± 0.042
6,RLWFPSARLRFT,0.678 ± 0.06
7,RMGAEDTGCRRP,0.657 ± 0.062
8,RMINHGNKAKFS,0.662 ± 0.016
9,RMIQKFGLGVVV,0.5613 ± 0.0047
10,RMNSCVLLDGFA,0.687 ± 0.03
11,RNFAPPFLPSPH,0.711 ± 0.066
12,RNIKIGKYMKRI,0.729 ± 0.034
13,RNIQKLNKIKKK,0.753 ± 0.15
14,RNNRQAREKKKQ,0.701 ± 0.15
15,RNPLDGDSGSRG,0.699 ± 0.0076
16,RNRDKKGDMILK,0.691 ± 0.0086
17,RNRRKTLMETRS,0.695 ± 0.082
18,RNSDPRLGGNTF,0.687 ± 0.052
19,RNTRAPTRNVPE,0.674 ± 0.028
20,RNTYKKREKNKK,0.7363 ± 0.0025
21,RNWCHGTVLNRL,0.736 ± 0.13
22,RPASPASSPFFP,0.70509 ± 0.00065
23,RPCSVPFSNTSP,0.666 ± 0.0067

row,Sequence,protein stability index
1,RPEKGLESGQRV,0.69 ± 0.064
2,RPLALHSYPCSP,0.6771 ± 0.00072
3,RPLPASTTLCVL,0.689 ± 0.11
4,RPLSSPPTRSRA,0.751 ± 0.038
5,RPLVSRLPIFIR,0.506 ± 0.014
6,RPPCLRPPPPPL,0.727 ± 0.012
7,RPPIGTLCSINF,0.614 ± 0.13
8,RPPNPPPALPPL,0.701 ± 0.056
9,RPPPLPPRPSPP,0.752 ± 0.12
10,RPPPPPPPPPSP,0.723 ± 0.089
11,RPPSPILPSSSP,0.714 ± 0.077
12,RPPVPSLLPEPT,0.6313 ± 0.0043
13,RPRPPLASPSPP,0.7005 ± 0.0013
14,RPRYITQGLPLL,0.738 ± 0.026
15,RPSGFVGSDVRV,0.629 ± 0.071
16,RPSNPPTKSQPS,0.665 ± 0.019
17,RPSPPALPRFLL,0.703 ± 0.0073
18,RPSTHPPATPPR,0.695 ± 0.07
19,RPSTSRKVKIDV,0.663 ± 0.066
20,RPTRSLYLLPLI,0.699 ± 0.019
21,RQESYYLYHTAR,0.717 ± 0.032
22,RQLPPRAPAARG,0.661 ± 0.028
23,RQNPRLPPPFQP,0.731 ± 0.052

row,Sequence,protein stability index
1,RQTNEHNNQNER,0.741 ± 0.082
2,RRCCLDPGGLLS,0.607 ± 0.0078
3,RRCGETTEQTVR,0.71 ± 0.059
4,RRCRPPTRRTKE,0.587 ± 0.053
5,RRCSCGFLCIDS,0.672 ± 0.14
6,RRDELINVVKRT,0.717 ± 0.072
7,RRDIPLSPVAFS,0.702 ± 0.031
8,RREKGEARGRGG,0.618 ± 0.013
9,RREKRPMKKGGR,0.6126 ± 0.002
10,RRERQNEKMTYH,0.656 ± 0.078
11,RRESQRRYRRML,0.714 ± 0.059
12,RRFLRRISAFAS,0.558 ± 0.06
13,RRFQYLTENYQK,0.6208 ± 0.0047
14,RRGAGCAAVGLG,0.618 ± 0.024
15,RRGRGGGRRVDA,0.731 ± 0.021
16,RRKGRLTAGWGR,0.713 ± 0.025
17,RRLFVMDKRKRK,0.716 ± 0.033
18,RRLSVPFSPSAL,0.733 ± 0.032
19,RRMHLNMKEREL,0.896 ± 0.054
20,RRMSQQCLPRQR,0.739 ± 0.047
21,RRNGVVGRLGWV,0.7 ± 0.051
22,RRPCTSSHAKAP,0.692 ± 0.021
